Positions count from the first letter of the chain named. “And” between values parts separate entries of the source, which are not always exact repeats. Equal entries are not always repeated.
B1: Antibody 389 (antibody, V domains shown)
VH: QVQLVESGGGVVQPGRSLRLSCAASGFTFSSYAMHWVRQAPGKGLEWVAVISYDGSNKYYADSVKGRFTISRDNSKNTLYLQMNSLRAEDTAVYYCASQGRMYVRGVDYGVYWGQGTLVTVSS
VL: NFMLTQPHSVSESPGKTVTISCTGSSGSIASNYVQWYQQRPGSAPTTVIYEDNQRPSGVPDRFSGSIDSSSNSASLTISGLKTEDEADYYCQSYDSSKISHAVFGGGTQLTVL
B2: antibody 485 (antibody, V domains shown)
VH: QVQLQESGPGLVKPSGTLSLTCAVSGASISSSNWWSWVRQPPGKGLEWIGEIYHSGSTNYNPSLKSRVTISVDKSKNQFSLKLSSVTAADTAVYYCARRSYYGSGSYYPFDYWGQGTLVTVSS
VL: QSALTQPASVSGSPGQSITISCTGTSSDVGSYNLVSWYQQHPGKAPKLMIYEGRKRPSGVSNRFSGSKSGNTASLTISGLQAEDEADYYCCSYAGSSTYVFGTGTKVTVL
B3: Antibody 390 (antibody, V domains shown)
VH: EVQLVESGGGLIQPGGSLRLSCAASGFTVSSNYMSWVRQAPGKGLEWVSIIYSGGSTYYADSVKGRFTISRDNSKNTLYLQMNSLRAEDSAVYSCATTMVRGLIISYYYGMDVWGQGTTVTVSS
VL: QSALTQPASVSGSPGQSITISCTGTSSDVGGYNYVSWYQQHPGKAPKLMIYEVSNRPSGVSNRFSGSKSGNTASLTISGLQAEDEADYYCSSYTSSSTLVFGGGTKLTVL
B4: anti-SARS-CoV-2 antibody 493 (antibody, V domains shown)
VH: B3 VH with G16R, S31I, N32T, I50L, T57S, S90T, S94Y, L103V
VL: B3 VL
B5: Antibody 413 (antibody, V domains shown)
VH: EVQLVESGGGLIQPGGSLRLSCAASGFTVSGNYMNWVRQAPGKGLEWVSVIYSGGSTYYADSVKGRFTISRANSKNTLYLQMNSLRAEDTAVYYCASTSLVRGLIILYYYGMDVWGQGTTVTVSS
VL: B3 VL
B6: antibody 269 (antibody, V domains shown)
VH: QLQLQESGPGLVKPSETLSLTCTVSGGSISSSSYYWGWIRQPPGKGLEWIGNIYYSGSTYYNPSLKSRVTISVDTSKNQFSLKLSSVTAADTAVYYCAGEELDIVATIYSSRYYYYGMDVWGQGTTVTVSS
VL: B3 VL with S96T
B7: antibody 270 (antibody, V domains shown)
VH: QVQLVQSGAEVKRPGTSVKVSCKTSGYTFTDHFIHWVRQAPGRRLEWMGWINPNSGGTNYAQNFQGRVTMTRDTSITTAYMDLTRLTSDDTAIYYCAREAAYGSGNLNWFDPWGQGTRVTVSS
VL: NFMLTQPHSVSESPGKTVTISCTGSSGSIAANYVHWYQQRPGSAPRTVIYEDNQRPSGVPDRFSGSIDSSSNSASLTISGLKTEDEADYYCQSYDGDSWVFGGGTKLTVL
B8: antibody 464 (antibody, V domains shown)
VH: QVQLVQSGAEVKKPGASVKVSCKVSGYTLTELSMHWVRQAPGKGLEWMGGFDPEDGETIYAQKFQGRVTMTEDTSTDTAYMELSSLRSEDTAVYYCATARAFGVANWFDPWGQGTLVTVSS
VL: QSVLTQPPSASGTPGQRVTISCSGSSSNIGSNYVYWYQQLPGTAPKLLIYRNNQRPSGVPDRFSGSKSGTSASLAISGLRSEDEADYYCAAWDDSLSGLYVFGTGTKVTVL
B9: antibody 495 (antibody, V domains shown)
VH: QITLKESGPTLVKPTQTLTLTCTFSGFSLSTSGVGVGWIRQPPGKALEWLALIYWDDDKRYSPSLKSRLTITKDTSKNQVVLIMTNMDPVDTATYYCAHRDSSSWFDLDAFDIWGQGTMVIVSS
VL: QSVLTQPPSVSEAPRQRVTISCSGSSSNIGNNAVNWYQQLPGKAPKLLIYYDDLLPSGVSDRFSGSKSGTSASLAISGLQSEDEADYYCAAWDDRLNGPVFGGGTKLTVL
B10: antibody 499 (antibody, V domains shown)
VH: EVQLVESGGGLVKPGGSLRLSCAASGFTFSSYSMNWVRQAPGKGLEWVSSISSSSSYIYYADSVKGRFTISRDNAKNSLYLQMNSLRAEDTAVYYCARAPAGIVVGPDYWGQGTLVTVSS
VL: NFMLTQPHSVSESPGKTVTISCTGSSGSIASNYVQWYQQRPGSAPTTVIFEDNQRPSGVPDRFSGSIDSSSNSASLTISGLKTEDEADYYCQSYHSSNPHVVFGGGTKLTVL

Key:
Settings in all cases: remark: other sources report otherwise
[1] = target: SARS-CoV-2 Spike (S) protein, wild type, full length, expressed on the surface of transiently transfected CHO cells (SARS-CoV-2), P0DTC2
[2] = target: SARS-CoV-2 Spike protein, wild type, full length (SARS-CoV-2), P0DTC2
[3] = target: SARS-CoV-2 Spike (S) protein, wild type (SARS-CoV-2), P0DTC2; experiment: HT-SPR Carterra LSA; mAb coupled to chip, Spike in solution; 1:1 Langmuir fit
[4] = target: T1, SARS-CoV-2 Spike (S) protein, wild type, full length (SARS-CoV-2), P0DTC2
[5] = target: T1, SARS-CoV-2 Spike (S) protein, wild …; remark: listed apart in the source

| Binder | MFI fold over isotype control (fold over isotype) [1] | binding signal, fold over isotype control (fold over isotype) [2] | also measured |
| --- | --- | --- | --- |
| B1 | 0.72 |  |  |
| B2 |  | 510 |  |
| B3 | 0.73 |  |  |
| B4 |  |  | kon [3]: 75000 M⁻¹ s⁻¹ |
| B5 | 1.11 |  |  |
| B6 |  |  | bead binding signal (fold over isotype) (fold over isotype) [4]: 480 and 191 and 188 |
| B7 |  |  | bead binding signal (fold over isotype) (fold over isotype) [4]: 305 |
| B8 |  | 1.27 and 0.99 and 1.04 |  |
| B9 |  | 1090 and 384 and 530 | median fluorescence, fold over isotype control (fold over isotype) [5]: 0.83 |
| B10 |  | 1120 and 386 and 432 | median fluorescence, fold over isotype control (fold over isotype) [5]: 0.9 |
